Results as given in the supplement of paper PMC9170038.

Tested on: MS2 coat protein
Assay: apparent KD of MS2 coat protein; designed switch direction (-1 OFF switch, 1 ON switch): -1; higher = weaker reporter binding
Method in brief: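 Transcription of designed RNA switches on Illumina chips was done by stalled E. coli RNA polymerase. SNAP-549-labelled MS2 coat protein was then titrated in doubling steps from 0.7 or 1.5 nM to 3 µM, with steps of 0.8–1.5 h at the lowest and 10–20 min at the highest concentration. The per-design median over clusters of curve-fitted normalised fluorescence is reported as apparent KD.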

[1] = input ligand: microRNA oligo, concentration not stated
[2] = Eterna round: R95, input ligand: FMN 200 uM
[3] = Eterna round: R95, input ligand: microRNA oligo, concentration not stated
[4] = Eterna round: R95, input ligand: none

Sequence	apparent KD of MS2 coat protein (input ligand: FMN 200 uM)	apparent KD of MS2 coat protein [1]	apparent KD of MS2 coat protein (input ligand: none)	apparent KD of MS2 coat protein [2]	apparent KD of MS2 coat protein [3]	apparent KD of MS2 coat protein [4]
UUUUAAUAUGAAGGAUAUACUUAACAUGAGGAUCACCCAUGUGGUGUUGUGAGUGAGUGAGUUUAGUAGAAGGUCAAUUAUUUU [JMF's solution 25] (Eterna round: R96, puzzle: Exclusion NG 2)	1020 nM	249 nM	405 nM			
GCAGGAUAAGUUAGGAUAUACCUAUGGAUACAUAGGUAGAAGGGACAUGAGGAUCACCCAUGUGACUCACCUGC [Fiskers BMX 4 - 63] (puzzle: Brourd's mod of Exclusion 4)				33.5 nM	18.4 nM	22.4 nM
GGAUCGAGUGUGAGGAUAUGCUGGUCCUUGGAUCAGCAGAAGGCACAUGAGGAUCACCCAUGUGAAGACGAUCC [Mat - Exclusion 4 - JL Mod - D73] (puzzle: Brourd's mod of Exclusion 4)					21.2 nM	
UGGCUGCUCAGGGAGUGUGACAUGAGGAUCACCCAUGUGGUGGUAGGGAACAAGCUUUUUGCACGUACUUAUGAGUC [JR_SV3TOV1_Sub009] (puzzle: Sensor v3, turn-off variant 1)				840 nM	107 nM	388 nM
GGAUCGAGUGUGAGGAUAUGCUGGUCCUUGGAUCAGCAGAAGGCACAUGAGGAUCACCCAUGUGAAGACGAUCC [Eli bmx4 4.55] (Eterna round: R97, puzzle: Brourd's mod of Exclusion 4)	340 nM		40.1 nM			
ACCUCACAUGAGGAUCACCCAUGUCAGGAUAUGUACCCGAUCAAGUCAGAGAUCGGAAGCAGAAGGGACUGCGG [Bemabebe] (puzzle: Exclusion 1)				26.5 nM	99.3 nM	86.5 nM
CCUUAACAUGAGGAUCACCCAUGUGAGGAUAUGAUGCAGCAGUGGUCUACGCUGUGCAUCAGAAGGUACAUGGU (puzzle: Exclusion 1)					38.9 nM	
CUAUGUUAGCAGGAUAUGCCAUUAUUCCUUUACGCAGAAGGGCUUACAUGAGGAUCACCCAUGUUACAUUUCAU [JR_E6_Sub084] (puzzle: Exclusion 6)					15.7 nM	
ACAAGCUUAAUCAGUAUGAACAUGAGGAUCACCCAUGUAAAAGGGAAUACUAUUGGGUUUUUUAAAGCUCGUCUUAU [JR_STOV1_Sub017] (Eterna round: R97, puzzle: Sensor, turn-off variant 1)	23 nM		21.8 nM			
GCGAAAGCAAGCAGGUGAAACAUGAGGAUCACCCAUGUCCUCAUUUGCUCGUCUUAUAAGCUAUGCGAAAGCAUAGC [Sensor 3, v1 - 3] (puzzle: Sensor v3, turn-off variant 1)				13.7 nM	113 nM	12.5 nM
CGUGACUCAGGAUAUCUAUGAUAUCACAUGAGGAUCACCCAUGUCCAGCAAUAGCUGGAGGGAGAAGGGAGUCACG [Fiskers Ex 5 - 41] (puzzle: Exclusion 5)				84 nM	54.3 nM	166 nM
UAAUGUAUAUAGGAUAUCUAGCUGGAAACAGCUAGAGAAGGAUGUACAUGAGGAUCACCCAUGUAAAUCGUGAA [Ex6/13-B1] (Eterna round: R97, puzzle: Exclusion 6)	60.4 nM		24.9 nM			
GCUGGUCGAGGAUAUGCAUACACUGGAUACAGUGGAAGGUCACAUGAGGAUCACCCAUGUAGAAGGCGACCAGC [EX2 #35] (Eterna round: R97, puzzle: Exclusion 2)	122 nM		35.1 nM			
GAGGAACAUGAGGAUCACCCAUGUGAGGAUAUGCAUAGCGAGGUAGUAGAAGUUGAAUGCAGAAGGUACACGGA [JR_Exclu1_Sub076] (puzzle: Exclusion 1)					27.5 nM	
ACUCAGUGAGGAUAUCGCCAGAGAGCCGCAACAGCUCCUGAUGAGAAGGCACAUGAGGAUCACCCAUGUAAGCA [EX4 C.19] (Eterna round: R97, puzzle: Exclusion 4)	321 nM		116 nM			
GUUUCACAUGAGGAUCACCCAUGUGAGGAUAUACAUUUGUUAACCGUAGUUAAUAGAUGUAGAAGGCGCGUGAU [JRxlusion 4 - Jieux - Exclusion 1] (Eterna round: R97, puzzle: Exclusion 1)	50.6 nM		62.6 nM			
CCAUUCAGAGGAUAUGCGCAUAAAUAAAACUUUUUUUUUUAACAUGAGGAUCACCCAUGUAGAAGGCUGUAACC [Ex2 #45] (Eterna round: R97, puzzle: Exclusion 2)	27.2 nM		26.7 nM			
UAUUAACAAGCGAGAUCCCACAUGAGGAUCACCCAUGUGCUCGUCUUAUAAGGUACUGUGACGAUAGUCACGGUACC [Mat - Sensor, turn-off var - Eli Mod - D3] (Eterna round: R97, puzzle: Sensor, turn-off variant 1)	14.5 nM		13.8 nM			
AUCAGCUCGUGAGGAUAUGAACAUGAGGAUCACCCAUGUAAGAUCAAGCUGCUUCGGCAGCAAGUUCAGAAGGCACGAGCUGAU [ENG2/10-A3] (Eterna round: R96, puzzle: Exclusion NG 2)	182 nM	84 nM	156 nM			
AGUACUAGCACGAAAGUGUUAGUACAAUAAGCUUGUGAAACAUGAGGAUCACCCAUGUCCUCAUAAGCUCGUCUUAU [salish99_TOv2_r3_020] (puzzle: Sensor v3, turn-off variant 2)				18.2 nM	429 nM	16 nM
AAGGAUAGAGGAUAUACAUAGAUACAGGUUCAUGUAGAACUACAUGAGGAUCACCCAUGUAGAAGGCUAUCCUA [Fiskers Ex 2 - 8] (puzzle: Exclusion 2)				113 nM	20.8 nM	21.1 nM
AGGUGCUUCUGGAGACAUGAGGAUCACCCAUGUCGAGUUAGCGAGGAUAUCGGUAAGGCAUGUGAUGAGAAGGCGCAAACCGAU [Ex NG3 #50] (Eterna round: R96, puzzle: Exclusion NG 3)	22.8 nM	12.7 nM	24.3 nM			
UAUUCGCAAGUGAGAUCCCACAUGAGGAUCACCCAUGUGCUCGUCUUAUAAGGUACUGUGACGAUAGUCACGGUACC [Mat - Sensor, turn-off var - Eli Mod - D80] (Eterna round: R97, puzzle: Sensor, turn-off variant 1)	30.9 nM		32.5 nM			
GCAUGGGCCGUCAGGAUAUAGGCGCCGUGAAGGUAUUAGAAGGGACAUGAGGAUCACCCAUGUAUGAGAAAAGA [Edtioresor] (puzzle: Brourd's mod of Exclusion 4)					33.7 nM	
UUUUGUCAGGUAUUUAUUAACAUGAGGAUCACCCAUGUGCAUCCAAAAUUACUUUUAGAUCAAGCUCGUCUUAUAUA [JR_STOV1_Sub089] (Eterna round: R97, puzzle: Sensor, turn-off variant 1)	94.3 nM		102 nM			
AAAAAAAAGUGAGGAUAUGGAAAUUUGGUGAUAACAUGAGGAUCACCCAUGUGAAAACAAUAAAAUUAGAAGGUAUAAAAAAAA [AK ExNG2-1] (Eterna round: R96, puzzle: Exclusion NG 2)	122 nM	73.1 nM	98.8 nM			
